For one molecule, Kd results are on record in article PMC5852006, “Microvillar and ciliary defects in zebrafish lacking an actin-binding bioactive peptide amidating enzyme” (Scientific Reports, 2018).

The test deals with Filamentous actin, pre-formed actin filaments derived from rabbit skeletal muscle (rabbit, UniProt P68135 1-377). Put plainly: co-sedimentation; F-actin spin-down; constant 0.5 μM F-actin with varying concentrations of PAM-CD; PAM-CD in supernatants and pellets by electrophoretic analysis; Scatchard analysis of three experiments. The settings on record: both partners purified.

B1: Peptidylglycine α-amidating monooxygenase cytosolic C-terminal domain, recombinant rat PAM(898–976) (domain or fragment)
chain: FGDHDRKLESSSGRVLGRFRGKGSGGLNLGNFFASRKGYSRKGFDRVSTEGSDQEKDEDDGTESEEEYSAPLPKPAPSS
notes: Peptidylglycine alpha-amidating monooxygenase (PAM), rat, cytosolic C-terminal domain, residues 898-976; no tag is mentioned; also called PAM-CD; rat PAM-CD; source: E. coli BL21(DE3), pET-11CD vector, purified
As for B1, the Kd (as a rule, the concentration at which binding is half-saturated) is 600 nM. In other words, the sub-micromolar range.
